Measured values: patent US6558918

Tests used:
[1] = target: Cdc2-F15/CyclinB1 complex (UniProt P06493)
[2] = target: kinase-deficient Cdc2 mutant (K-) complexed with cyclin B1 (UniProt P06493)
[3] = target: wild-type Cdc2/cyclin B1 complex (UniProt P06493)
[4] = target: Cdc2-AF/CyclinB1 complex (UniProt P06493)
Sequence of Cdc2-AF/CyclinB1 complex (P06493 whole entry, looked up, one chain of several): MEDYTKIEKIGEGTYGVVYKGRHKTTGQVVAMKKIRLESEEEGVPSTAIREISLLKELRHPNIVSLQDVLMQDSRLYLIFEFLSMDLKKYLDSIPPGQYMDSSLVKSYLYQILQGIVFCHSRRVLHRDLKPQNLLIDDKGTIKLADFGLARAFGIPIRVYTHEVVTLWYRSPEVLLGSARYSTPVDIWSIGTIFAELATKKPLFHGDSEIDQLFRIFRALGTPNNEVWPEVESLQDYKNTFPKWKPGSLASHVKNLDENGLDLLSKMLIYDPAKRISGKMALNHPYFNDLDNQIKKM

Sequence of full-length human Wee1 with N-terminal Glu-Glu tag, expressed in Sf9 cells (chain, as listed by the source): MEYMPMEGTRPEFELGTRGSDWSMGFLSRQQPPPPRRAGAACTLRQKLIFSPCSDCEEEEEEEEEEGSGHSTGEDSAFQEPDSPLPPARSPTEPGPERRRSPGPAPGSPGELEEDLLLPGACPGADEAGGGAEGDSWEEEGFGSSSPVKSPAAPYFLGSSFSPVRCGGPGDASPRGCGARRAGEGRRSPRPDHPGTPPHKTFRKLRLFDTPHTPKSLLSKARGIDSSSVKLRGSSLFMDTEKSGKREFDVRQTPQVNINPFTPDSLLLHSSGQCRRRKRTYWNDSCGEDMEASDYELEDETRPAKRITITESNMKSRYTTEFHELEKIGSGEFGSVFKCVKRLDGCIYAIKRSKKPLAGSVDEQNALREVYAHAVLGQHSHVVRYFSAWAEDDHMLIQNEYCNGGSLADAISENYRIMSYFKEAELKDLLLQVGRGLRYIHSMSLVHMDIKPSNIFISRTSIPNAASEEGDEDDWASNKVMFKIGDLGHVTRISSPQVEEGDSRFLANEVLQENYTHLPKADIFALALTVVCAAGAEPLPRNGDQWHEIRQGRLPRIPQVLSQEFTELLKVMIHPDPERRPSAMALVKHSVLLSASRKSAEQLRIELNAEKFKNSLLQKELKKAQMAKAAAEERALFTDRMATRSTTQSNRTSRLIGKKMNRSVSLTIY
Sequence of kinase-deficient Cdc2 mutant (K-) complexed with cyclin B1 (P06493 whole entry, looked up, change not shown, one chain of several): as the sequence (P06493 whole entry, looked up, one chain of several) above
Sequence of wild-type Cdc2/cyclin B1 complex (P06493 whole entry, looked up, one chain of several): as above
Sequence of Cdc2-F15/CyclinB1 complex (P06493 whole entry, looked up, one chain of several): as above

full-length human Wee1 with N-terminal Glu-Glu tag, expressed in Sf9 cells
histone H1 kinase activity in mixed Sf9 lysates [1]: Cdc2-F15/CyclinB1 and Cdc2-AF/CylinB1 complexes retained full activity in the presence of Wee1 lysates | phosphoamino acid analysis of 32P-labeled Cdc2 [2]: the Tyrosine 15 residue was readily phosphorylated by full-length Wee1 | histone H1 kinase activity of Cdc2/CyclinB1 in mixed Sf9 lysates [3]: the addition of Wee1 lysates effectively inhibited Cdc2/CyclinB1 kinase activation | histone H1 kinase activity in mixed Sf9 lysates [4]: Cdc2-F15/CyclinB1 and Cdc2-AF/CylinB1 complexes retained full activity in the presence of Wee1 lysates
